From US20080206136A1 (University of Pennsylvania, published 2008)
Bridges are numbered along the chain shown (N, C = ends). Where no end group is shown, it is not given here.

Molecular target: T1, Her2 (UniProt P04626 23-652, limits assumed)
T1 construct: also called Her2/neu; Neu
Test: method not stated; affinity for Her2

## FCDGFYACYMDV (disulfide 2-8 (inferred), also called anti-Her2 peptide) [AHNP peptide]
  Kd: 350 nM
